# From article PMC10936776, “Structural and functional characterization of AfsR, an SARP family transcriptional activator of antibiotic biosynthesis in Streptomyces” (PLOS Biology, 2024)
# Numbering of substitutions follows the chain as printed.
# T1: Streptomyces coelicolor RNA polymerase α subunit (S. coelicolor, UniProt P60312 1-340)
# T1 construct: RNA polymerase subunit alpha, S. coelicolor; Stood in the assay as a subunit of the RNAP core in the holoenzyme; density for one αCTD is seen; also called αCTD (C-terminal domain of the α subunit); source: S. coelicolor RNAP purified as described previously [37]
# T1 sequence: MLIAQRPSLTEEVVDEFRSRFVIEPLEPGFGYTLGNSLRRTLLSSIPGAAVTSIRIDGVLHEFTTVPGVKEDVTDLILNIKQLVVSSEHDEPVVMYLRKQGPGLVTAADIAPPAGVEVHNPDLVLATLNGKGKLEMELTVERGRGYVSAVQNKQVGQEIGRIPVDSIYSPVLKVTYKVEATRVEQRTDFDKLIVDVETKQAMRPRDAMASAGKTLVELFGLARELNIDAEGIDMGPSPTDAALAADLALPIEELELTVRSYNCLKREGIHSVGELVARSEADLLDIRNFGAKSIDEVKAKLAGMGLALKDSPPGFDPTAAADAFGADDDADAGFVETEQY
# T2: Streptomyces coelicolor RNA polymerase sigma factor σ^HrdB (S. coelicolor, UniProt P18183 1-511)
# T2 construct: principal sigma factor HrdB, S. coelicolor; region 1.1 disordered in the map; Stood in the assay as part of the RNAP σ^HrdB-holoenzyme; also called σ subunit; σ R4 (region 4); source: purified as described previously [37]
# T2 sequence: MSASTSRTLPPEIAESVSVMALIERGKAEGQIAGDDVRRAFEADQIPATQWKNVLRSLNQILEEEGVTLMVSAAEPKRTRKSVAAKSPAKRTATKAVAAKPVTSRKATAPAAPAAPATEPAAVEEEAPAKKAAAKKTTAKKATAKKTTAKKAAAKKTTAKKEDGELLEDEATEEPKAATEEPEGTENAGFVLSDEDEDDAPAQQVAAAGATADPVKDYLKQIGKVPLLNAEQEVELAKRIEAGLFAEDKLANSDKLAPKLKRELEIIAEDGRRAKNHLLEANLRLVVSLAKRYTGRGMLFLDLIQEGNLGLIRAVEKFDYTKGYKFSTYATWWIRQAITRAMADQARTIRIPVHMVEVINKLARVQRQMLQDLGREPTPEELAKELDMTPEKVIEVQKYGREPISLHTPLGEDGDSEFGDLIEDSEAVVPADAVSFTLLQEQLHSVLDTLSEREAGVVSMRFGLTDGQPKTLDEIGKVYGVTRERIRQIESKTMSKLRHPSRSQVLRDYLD
# T3: AfsR, dephosphorylated (Streptomyces coelicolor M145, UniProt P25941 1-993)
# T3 sequence: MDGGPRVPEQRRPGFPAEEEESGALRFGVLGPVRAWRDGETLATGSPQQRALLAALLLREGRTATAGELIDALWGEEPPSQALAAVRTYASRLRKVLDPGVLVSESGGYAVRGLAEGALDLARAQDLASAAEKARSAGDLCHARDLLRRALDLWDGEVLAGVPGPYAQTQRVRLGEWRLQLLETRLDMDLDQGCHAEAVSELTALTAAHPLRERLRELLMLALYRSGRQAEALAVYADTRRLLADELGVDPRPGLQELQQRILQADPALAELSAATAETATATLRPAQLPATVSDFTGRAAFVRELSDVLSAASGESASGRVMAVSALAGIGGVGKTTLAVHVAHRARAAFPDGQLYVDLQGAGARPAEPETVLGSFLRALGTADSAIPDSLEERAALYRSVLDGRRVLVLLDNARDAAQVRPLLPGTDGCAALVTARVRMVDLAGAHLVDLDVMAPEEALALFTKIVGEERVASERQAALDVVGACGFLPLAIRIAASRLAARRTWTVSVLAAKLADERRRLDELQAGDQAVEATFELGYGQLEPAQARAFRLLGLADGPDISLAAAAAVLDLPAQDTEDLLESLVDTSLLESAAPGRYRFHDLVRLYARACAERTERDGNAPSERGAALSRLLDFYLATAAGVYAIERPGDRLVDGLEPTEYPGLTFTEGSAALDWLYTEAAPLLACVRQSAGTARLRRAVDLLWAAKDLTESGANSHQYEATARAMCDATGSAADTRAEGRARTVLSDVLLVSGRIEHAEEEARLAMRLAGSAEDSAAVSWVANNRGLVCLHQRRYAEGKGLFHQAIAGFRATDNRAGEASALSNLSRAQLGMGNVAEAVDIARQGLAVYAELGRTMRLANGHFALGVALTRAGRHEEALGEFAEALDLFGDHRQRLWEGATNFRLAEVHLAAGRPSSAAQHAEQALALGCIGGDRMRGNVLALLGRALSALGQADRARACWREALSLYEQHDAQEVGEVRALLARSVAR
# T4: AfsR SARP domain (Streptomyces coelicolor M145, UniProt P25941 1-270)
# T4 sequence: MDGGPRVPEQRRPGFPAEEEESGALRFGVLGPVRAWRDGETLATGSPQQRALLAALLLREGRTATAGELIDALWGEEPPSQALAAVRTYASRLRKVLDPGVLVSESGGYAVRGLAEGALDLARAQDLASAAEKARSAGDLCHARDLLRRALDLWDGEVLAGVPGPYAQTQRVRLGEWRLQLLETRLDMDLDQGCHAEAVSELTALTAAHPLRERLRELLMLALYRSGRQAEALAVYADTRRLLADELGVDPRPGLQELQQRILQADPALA
# T5: AfsR 4E (Streptomyces coelicolor M145, UniProt P25941 1-993, S391E;T337E;T506E;S953E)
# T5 sequence: T3 sequence with T337E, S391E, T506E, S953E
# B1: SARP domain of Streptomyces coelicolor AfsR (residues 1 to 270) (domain or fragment, S. coelicolor, UniProt P25941 1-270, looked up)
# chain: T4 sequence
# notes: AfsR, S. coelicolor M145, SARP domain, residues 1 to 270 (Met1-Ala270); Two protomers (upstream and downstream) stand on the afs box DNA in SARP-TIC; also called isolated SARP domain; wild-type SARP; source: E. coli BL21(DE3), purified (nickel-NTA, SEC Superdex 200)
# B2: afs box (-45 to -14) (dsDNA)
# DNA 1: CGGAGCGTTCAGCGTTCGTTTATCTCCCCCTG
# DNA 2: CAGGGGGAGATAAACGAACGCTGAACGCTCCG
# B3: afsS promoter scaffold -50 to +15, 6-nt bubble (dsDNA)
# DNA 1: GTAGCCGGAGCGTTCAGCGTTCGTTTATCTCCCCCTGGCACTGTCATCTCCGTCAGACCGTCGCA
# DNA 2: TGCGACGGTCTGACGCTCTACACAGTGCCAGGGGGAGATAAACGAACGCTGAACGCTCCGGCTAC
# Columns and labels:
# [1] = molecular target: SARP domain of Streptomyces coelicolor AfsR (residues 1 to 270) (S. coelicolor) (UniProt P25941); test: cryo-EM structure; SARP-TIC: 32 uM SARP preincubated with 5 uM afsS promoter DNA scaffold, mixed with 4 uM RNAP core, 16 uM σ^HrdB, 16 uM CarD, 32 uM RbpA; 25°C; 20 mM Tris-HCl pH 8.0, 50 mM KCl, 5 mM MgCl2, 3 mM DTT; Superose 6; nominal resolution 3.35 Å, SARP region 3.77 Å
# [2] = molecular target: T6, Streptomyces coelicolor RNA polymerase β′ subunit (S. coelicolor, UniProt Q8CJT1 1-1299); test: as above; details: both partners purified
# T6 construct: RNA polymerase subunit beta', S. coelicolor; Stood in the assay as a subunit of the RNAP core in the holoenzyme; also called RNAP β′; β′ ZBD; source: S. coelicolor RNAP purified as described previously [37]
# [3] = molecular target: T7, Streptomyces coelicolor RNA polymerase β subunit (S. coelicolor, UniProt Q9L0L0 1-1161); test: as above; details: both partners purified
# T7 construct: RNA polymerase subunit beta, S. coelicolor; Stood in the assay as a subunit of the RNAP core in the holoenzyme; also called RNAP β; β flap; source: S. coelicolor RNAP purified as described previously [37]
# [4] = molecular target: T1, Streptomyces coelicolor RNA polymerase …; test: as above; details: both partners purified
# [5] = molecular target: T2, Streptomyces coelicolor RNA polymerase …; test: as above; details: both partners purified
# [6] = molecular target: T3, AfsR, dephosphorylated; test: fluorescence polarization; preincubated with ATP; DNA binding unchanged; FP: 20 mM HEPES pH 7.5, 100 mM NaCl, 5 mM MgCl2, 2 mM DTT, 5% glycerol, 0.1 ug/ml poly(dI-dC), 10 nM DNA, 30 C, 20 min; details: protein: recombinant; tags: pET28a His tag (Ni-NTA); chain copies: 2; label: 5'-FAM; blunt
# [7] = molecular target: T4, AfsR SARP domain; test: fluorescence polarization; 5 mM Mg2+; poly(dI-dC); FP: 20 mM HEPES pH 7.5, 100 mM NaCl, 5 mM MgCl2, 2 mM DTT, 5% glycerol, 0.1 ug/ml poly(dI-dC), 10 nM DNA, 30 C, 20 min; details: protein: recombinant; tags: pET28a His tag (Ni-NTA); chain copies: 2; label: 5'-FAM; blunt
# [8] = molecular target: T5, AfsR 4E; test: fluorescence polarization; stronger than dephosphorylated AfsR; FP: 20 mM HEPES pH 7.5, 100 mM NaCl, 5 mM MgCl2, 2 mM DTT, 5% glycerol, 0.1 ug/ml poly(dI-dC), 10 nM DNA, 30 C, 20 min; details: protein: recombinant; tags: pET28a His tag (Ni-NTA); chain copies: 2; label: 5'-FAM; blunt
# [9] = molecular target: AfsR SARP domain;RNAP-sigmaHrdB holoenzyme;RbpA;CarD (Streptomyces coelicolor …, UniProt P25941;P60312;Q9L0L0;Q8CJT1;P18183;Q9KXS1;Q9RKY0;Q9L0Q9 …, |||); test: cryo-EM; 3.35 A; open complex, 13-nt bubble; FP: 20 mM HEPES pH 7.5, 100 mM NaCl, 5 mM MgCl2, 2 mM DTT, 5% glycerol, 0.1 ug/ml poly(dI-dC), 10 nM DNA, 30 C, 20 min; details: protein: recombinant;;recombinant;recombinant; tags: pET28a His tag (Ni-NTA);;pET28a His tag (Ni-NTA);pET28a His tag (Ni-NTA); chain copies: 2;2;1;1;1;1;1;1; 44 bp duplex, 6-nt mismatched bubble (-6 to -1), 15 bp duplex
binder,measurement,setting,value
B1,stoichiometry N,[1],2
same,binding result,[2],binds
same,binding result,[3],binds
same,binding result,[4],binds
same,binding result,[5],binds
B2,binding result,[6],binds
same,binding result,[7],binds
same,binding result,[8],binds
B3,binding result,[9],binds
